Test in all cases: cell_activity
Data set [1] relates to ZFN 8196z-FokI wt (ZFN215 and ZFN201 pair member) (synthetic).
For data set [2], the system named is ZFN 8196z-FokI E490K/I538K (ZFN224 pair member) (synthetic).
Data set [3] has as its system ZFN 8266-FokI Q486E/I499L (ZFN224 pair member) (synthetic).
Data set [4] has as its system ZFN 8266-FokI wt (ZFN201 pair member) (synthetic). Particulars: pair ZFN201 with 8196z, PM1 cells, plasmid electroporation.
The test system of data set [5] is ZFN 8267-FokI wt (ZFN215 pair member) (synthetic). Particulars: pair ZFN215 with 8196z, CD4+ T-cells, MOI 100, Cel-1 assay; 31.2% in PBMCs.
Where [6] appears, read: pair ZFN224, CD4 T cells, conditions giving 35.6% CCR5 modification, Surveyor nuclease.

Regarding “AAACTGCAAAAG (double strand) [CCR5 168 half-site]”, the activity (% CCR5 alleles modified) in data set [1] (pair ZFN201 with 8266, PM1 cells, plasmid electroporation) was 2.4; in data set [1] (pair ZFN215 with 8267, CD4+ T-cells, MOI 100, Cel-1 assay, 31.2% in PBMCs), 32.3; in data set [2] (pair ZFN224, CD4+ T-cells, MOI 100, Cel-1 assay, 48.4% in Example 4), 14.9.

As for “GATGAGGATGAC (double strand) [CCR5 r162 half-site]”, the activity (% CCR5 alleles modified) came to 14.9 in data set [3] (pair ZFN224 with 8196z, CD4+ T-cells, MOI 100, Cel-1, Examples 14 and 17 state 8266 in ZFN224 but Example 1 states 8267); 2.4 in data set [4]; 32.3 in data set [5].

For the substance CCR2 off-target site, the activity (% CCR2 alleles modified) in data set [2] (setting [6]) and in data set [3] (setting [6]) was 4.1 throughout.

Values taken from patent US20080159996.
